Laboratory results published in patent publication US20240280570A1.
Where two headings read alike, the source gives them in different places.

Columns and labels:
[1] = target: MCA-SpyTag peptide; test: QCM-D, SpyTag peptide on HDT-coated gold, without BSA (data not shown)
[2] = target: SARS-CoV-2 S1 (Sino Biological 40591-V08B1); Spike Protein S1 subunit residues 1 - 685(R) His tagged (SARS-CoV-2) (UniProt P0DTC2)
[3] = target: SARS-CoV-2 S1 (Sino Biological 40591-V08B1); Spike Protein S1 subunit residues 1 - 685(R) His tagged (SARS-CoV-2) (UniProt P0DTC2); remark: listed apart in the source
[4] = target: SARS-CoV-2 S1 (Sino Biological 40591-V08B1); Spike Protein S1 subunit residues 1 - 685(R) His tagged (SARS-CoV-2) (UniProt P0DTC2); remark: listed apart in the source
[5] = target: MCA-SpyTag peptide
[6] = target: SARS-CoV-2 S1 (Sino Biological 40591-V08B1); Spike Protein S1 subunit residues 1 - 685(R) His tagged (SARS-CoV-2) (UniProt P0DTC2); remark: listed apart in the source
[7] = target: SARS-CoV-2 S1 (Sino Biological 40591-V08B1); Spike Protein S1 subunit residues 1 - 685(R) His tagged (SARS-CoV-2) (UniProt P0DTC2); test: method not stated at this place (SPR of viral targets is described in paragraph 219)
[8] = target: SARS-CoV-2 S1 (Sino Biological 40591-V08B1); Spike Protein S1 subunit residues 1 - 685(R) His tagged (SARS-CoV-2) (UniProt P0DTC2); test: OECT sensor, PEDOT:PSS channel, nanobody on gate, target in buffer
[9] = target: SARS-CoV-1 RBD (Sino Biological 40150-V08B2); Spike Receptor Binding Domain residues R306 - F527 His tagged (SARS-CoV-1) (UniProt P59594)
[10] = target: SARS-CoV-1 RBD (Sino Biological 40150-V08B2); Spike Receptor Binding Domain residues R306 - F527 His tagged (SARS-CoV-1) (UniProt P59594); test: OECT sensor, PEDOT:PSS channel, nanobody on gate, target in buffer

“VHH72-8 aa-spyCatcher-3C cleavage site-His8” gave a mass density bound (QCM-D) [1] of 407 ng cm-2, a molecules bound per cm2 (QCM-D) (nanobodies per cm^2) [1] of 8.4e+12 and an LOD [2] of 1.8e-08 pM. For the same substance, the LOD [3] was 1.2e-09 pM, the normalized response (NR) [4] was 30% and the mass density bound (QCM-D) [5] was 430 ng cm-2. It also gave an LOD [6] of 0.019 pM, a Kd [7] of 23 nM and an LOD [8] of 0.00028 pM.

With “VHH72-8 aa-spyCatcher-3C cleavage site-His8 (VHH; other documents disagree on this pair)” the LOD [9] was 1.6e-05 pM and the LOD [10] was 0.0015 pM.
